According to the DeepSol protein solubility set:

Assay: soluble on expression in E. coli; label from the status in PepcDB or PDB records

Sequence | soluble on expression in E. coli
MDIISVALKRHSTKAFDASKKLTPEQAEQIKTLLQYSPSSTNSQPWHFIVASTEEGKARVAKSAAGNYVFNERKMLDASHVVVFCAKTAMDDVWLKLVVDQEDADGRFATPEAKAANDKGRKFFADMHRKDLHDDAEWMAKQVYLNVGNFLLGVAALGLDAVPIEGFDAAILDAEFGLKEKGYTSLVVVPVGHHSVEDFNATLPKSRLPQNITLTEV | soluble
MKSIHYTKAVSGTERMTFGSNDEWERIVEEMLEFEKICIPFHSTSHSPDILFKLHGRTNEKNLMIVGIACKGRWSRNGIRWNEILEEAHKFLKPVHDQVLTSHPTWHCMLIIMSTQLATNVSEDLNHSSRCYSFGDSVGDFVIPHNCELVILSEADVENFIGKDILSNLRNAFKAVDNPHSRNIGISTLQKIVLLLSKNI | not soluble
SLLLLQSILITKIMVIQLILFFEYALASGFEDKNILKEGKMMFDTLLKQFLEIDKVISLLYKDFVDNYIDFKNLEIVKIKKENEIENKLKSLLKSENIDYALVVAPEDEDILYNLTKIIESYPVKNLGCSSEAIKIAGNKYLTYLAIKDAVKTPKTFPPKKYVVKKIDSCGGKFNLFDENFLIQEFIDGENLSVSLIVGKKIHPLSLNRQYIDKRGFVGGEVNINHKLKDKIFNEAIKAVKCINGLNGYVGVDVIVNNDGIYIIEINPRITTTIYGLKTNPSLAELLIKNANNEELKFKVKGEKFTIDK | not soluble
NNDSWKPWSLPLSGKIIYLDPGHGGPDGGAVGGKLLEKDVTLEVAFRVRDYLQEQGALVIMTRESDTDLAPEGTKGYSRRKAEDLRQRVKLINHSEAELYISIHLNAIPSQKWSGAQSFYYGKYAENEKVAKYIQDELRRNLENTTRKAKRIHGIYLMQNVTKPGALIEVGFLSNPSEATLLGKPKYQDKVASSIYKGILRYFTEKGDPPE | not soluble
MTYQDRSGATAVVQSSYQLVLLTPAAIHGADPREKAEFRLSSLRGVWRYWWRTLQDEPDPEKLLAKEEEWFGGTRKMKQQSPIHLSMAGVMEGTKKENILPHRTSPTLVPALPAGGEVTVTLSVRKRHQERLAQYDWYFQYVLHLASFGQRSRRGFGAVQWIGHQWSNVGEYVESLRMVLEHIGVAGAFSFAERDCLVARRGDIQTQHPVLSAVWIGEGKESAAEVVKAFGKASHEANRYGSLGYMRGKAGKLSSTLWCTVRKIGNWYYPIVTEVRNHDPHYSEPRYEQDRNRFLEIVGVRI | not soluble
MAGDPMPTLFDDPLHQLPRPPRRVAAGVVHLPNFLGLAEQKALVAQARDLAREVVGTPLAMVRPKLKSGQMSVHMLHLGKYWASNPYRYVDVVDGFPVPPLPDSFVDLAHRALLSAGSLSNSLQSWSEAYRAEAALVNYYSPDASMGMHQDANEESEAPVISLSIGDTGIFRLGGTLNRNKPWTDIPLMSGDLIVFGGANRQAFHGIPSIEANTAPAGCGLKEGRINITIRQLALAAALEHHHHHH | soluble
MTFAGIDVSKTHLDLALVSNSPKPTRLRFPNSPEGRQALLAALAHHNPAWVALEPTSAYHLPLLKLLAENRLQVALVNPYHLAAFRKAKGERQKTDRQDALLLARYAQVYHEDLRAYTLPPETLRELKALVGYREDLAGRERTILNQMEAAEWAGSKEVLALLQKELACVKGLLGEVEARIQALLATLPEAEVLMALPGVGPQVAAAVLALLPPELWGRAKRAASYAGLIPEREESGKSVERSRLSKKGPPLLRRKLYMGALVAVRHDPEMRAFYHRLLSRGKRKKQALVAVAHKLLRRMMGRLREYYATQLDQGVA | soluble
MGSDKIHHHHHHMADYTKMWSELGLDLKSHDALLSILGSAYGDIFLSQKDRPEGMKYFDFVMSEVHGLRIQELMEAKARGRIVVGSYCVFVPEELILAVDGVSVGLCAGAEFNFEGAEEVLPRNTCALIKSAFGFKFGKVCPYLEACDVVVGENTCDGKKKAYEILGPLVTDLYVIDLHQTKSDMGRALLKEEYRRFAAKLESVSGKKITPDSLKKGIEVVNAKRMAVKRLAAIRAADPAPISGLDALLVNQVFFYDDPVRFTHSVNQLCDELEERVKQGIGVFAQGTTRVIVSGCPMAVPNWKLPMLIESSNAVIVGEESCVGERGTRWLTEFRGETEEDLLDALTERYFSIDCAVFTPNPSRVDYVKEMTKKLNAQGVIHYSLQFCQPHMVESGPVEKELEKSGIPTLRLETDYSQEDAGQLKTRIEAFVERLENK | not soluble
MDDYVPIPFTLLKLPQKSIDVVLRRMCIEALVELSFTSKAAMQQTKHLGIKTERFIIAINSNEILIDVSGCRDFRFYTFECSTPSHHTVQKPIRVHVGFRGERWETPFFGVRQFLNHLMEIFHQTKLDSLHISTADPECSNELKGMEFGWLSMMSMTSDNNSSQDEDALRQFSGKTDSICLNRNPFSIEPSKQMQMILTRNMNVVSTKCDLNDVFVTNARSFTAFLKIEDVNIFLKHWMHRSDRKLKSAWFDLDAFRWDVEDVLEPLFKGIAYHVAPADREFIVHLPKKLSGCGDYRVIGGYDVRRNDGMTATIIVADRANVFLKMFFWI | not soluble
MPVNSILGVFAKSPIKPLQEHMDKVYDCASLLVPFFEATITGNWDDAVQIRKQISLAEKQGDSLKREIRLTLPSGLFMPVERTDLLELLTQQDKIANKAKDISGRVIGRQLLIPQALQVPFIAYLQRCIDAVGLAQQVINELDDLLEAGFRGREVDFVAKMINELDIIEEDTDDLQIQLRRQLFALESELNPVDVMFLYKTIEWVGGLADLAERVGSRLELMLARVLEHHHHHH | soluble
MHYFSEKPTTKSDVKIVEDILRGKKLKFKTDSGVFSYGKVDKGTKILVENVVVDKDDDILDLGCGYGVIGIALADEVKSTTMADINRRAIKLAKENIKLNNLDNYDIRVVHSDLYENVKDRKYNKIITNPPIRAGKEVLHRIIEEGKELLKDNGEIWVVIQTKQGAKSLAKYMKDVFGNVETVTIKGGYRVLKSKKL | soluble
MGSDKIHHHHHHMSEDQKRILEQQLWNIANTLRGKMNADEFRDYILGFIFYKYLSEKMEIFANDILKQDKISFREITPKLKQGKEYLEAIREEALEKLGYFLKPEELFSEVAKRGRGSNDEGENFDEAKTNFILEDLQKILINIQLSTMGTDSEEDFDNLFEDMDLNSTKLGKTPDARNAIIAKVLTHLDKIDFKLEDLESDVLGDSYEYLIGQFASGAGKKAGEFYTPQQVSKILAKIVTTEKHKLKSVYDPTCGSGSLLLRVAREVKDVAKFYGQEMNRTTYNLARMNMILHGVHYRKFDIKQEDTLEHPQHMGQQFEAIVANPPFSAQWSANPLHLSDDRFSQYGKLAPASKADYAFVQHMVHHLAENGIMALVLPHGVLFRGGAEQHIRKYLIEQKNYLDAVIGLPGNIFYGTSIPTCILVIKKCREMPDNILFIDASKEFEKVKTQNILREKHIDKIVDTYRSRKEIEKYSHCASLKEIAENDFNLNIPRYVDTFEEEEEIDIQAVMAEIKNLEAKRTDLDKQIDVYMKELGLVF | not soluble
MGSDKIHHHHHHMIVEMTGIHKSFSGNPVLKDVSFTLEKGEIHALMGENGAGKSTLMKILTGIYERDSGTVKIKGREVHYKHPKEAEADGLAVIHQELNILPELTVAENLFVGKERTYGKTGWIKSKEMNRLAEEKLAELGLKVKGTERAGNLSVGKQQLIEIAKALMTNADIIIMDEPTAALTDREIDTLFATVRELQKKGVTFVYISHRMEEIFSLCQRITVLRDGEYVGTKVIAETSFDEIVKMMVGRALGNRFPEHTLTPGDVKLEIKHLTRAGEFENVSLSVRAGEILGISGLMGAGRSELVETIFGYRKADSGEVWIDGKQAAIKGPDQAIAQGIGFVSEDRKSKGLIVDFSIRDNISLTNLSRISTSSWISSEKERSLYEELAKKLHVKASGPSQQAKSLSGGNQQKIVIAKWLGIEPKILILDEPTRGVDVGAKKEIYTIMNELAKQGVAIIMVSSELPEVIGLSTRVAVMFEGKLMHILERDELSEETIMHYATGGDKHVRQ | not soluble
MAHHHHHHMNASGATASEGKNPPRDARTVSFHPESTFHEQHNAASQRFSHTSEPGWESRESNSGYAAQDGGDTANEGIRRSYYKRLYRFYRKYNPQKLCNVEKLLRECRGEEEQLFAILVGKYGPEPEEESSMLSGDCVFSSAGDSVMHYSGKRCQFPKKVKPEEGNTDCETPYWAGASSLIGDRDLLSLLQNLETPNVELQKCYMGVFAEHPTDCWNGMAYITRAEGIAPANTKFLGHTWVGTLGSGKVLVHEGKKFHRTTLYCTEECQKRGNHERWRLSVYRGEVSYLILLRTVWDPVVVPEPLPLNRSNLSEREVHSSLDGFPTRLSSMSSADSGGSGSRQPIQPPQPQQHTVTPAFVQFTKLLEELESRIIERLEGLERRMSRLENM | not soluble
MKCPYCGHPDTRVVDSRPSDEGMAIRRRRECPSCGRRFTTYERTQLEPLMVVKRDGRKEPFNPDKLLRGLLLACEKRPVSEEVLRRFAYTFEDQVSGPEITSEEIGLKALAFLKELDHVAYIRFASVYREFDSVERFIEEIRSLASLN | soluble
MRYAEVLIPLALEGSFHYRLAEGLAEKAIVGMRCVVPFGAKRYYTGIIIGLSDKRPNLQISFKEVLFLPDDKPSVTASQLSLWQWLSAYYICTQGEVLRAALPAALLPESHTVIHYNTDFEADSRLSRDEEELLDILESAKGRTYTLDALQKAVGKRAIRAFTSLVERGAIRLEEEVKSRYKPKSEVFVRLAEPFRTEKTFASLLDSLHRAPKQSALLLHWAELITEHSLPYSSPMPQRLLAESDPHATVTLSALKKKGIFLSESVTHSVMYSAGGGEYRLWEQPQEEEKAIQSEESSTDSAVSASLPQKPLSLLYTHDFRRKEKQLLEWTEEVVRSGGQVLYLSPEANKRGGSDTLSTRMAERLGSCLLSYHAFESDAKRVEVWNRLATTEYPCVVLGVRSALFLPFRRLRLIIVDEEQEYLYKQQDPAPRFHTRQVAARLGRIHDCPVVLASATPSAEVLHQVRHKACELITWPDDRVRPRFDLEVIDMGKMRRQRQVGAGELLSFPLVSAIEETIRQKKMAVVLQNRRGFAPYIICSSCGEKLRCIHCDVSLTYHKHSCMLVCHYCGYSRPLPRICPSCKRASGVGEPSSLQPVGYGAERIEEELKRRFPTVSILRMDSDMAMSRTKMDEALARLEAKEVDILVGTQLIKGQVYNEHVGLVAVTQLDSILGFPDFRAYERAYQLLYQLMLRSGASRLYIQTNNPANSFPDLLREGDYKAFIGKQLEERQMLFFPPFSRLIRIEFRAGEESLVERIASDYAASLAAHLPEQSLSPVLVPPISRLRNAFIRELLLRLPLSSSVSATRNILDTIRTTLQTRTQEYKRVRILFDVDPL | not soluble
MGHHHHHHSHMKAEGKKPISKIPKKGFVEVTELTDVTYTSNLVRLRPGHMNVVLILSNSTKTSLLQKFALEVYTFTGSSCLHFSFLSLDKHREWLEYLLEFAQDAAPIPNQYDKHFMERDYTGYVLALNGHKKYFCLFKPQKTVEEEEAIGSCSDVDSSLYLGESRGKPSCGLGSRPIKGKLSKLSLWMERLLEGSLQRFYIPSWPELD | not soluble
MKKLNFSELNWINTPENFSITENELVIHTSPDTDFWRGTYYGLEYNNAPGIVMRSEERFWTLKSKVAFESNMFFDQCGMLIYIDDNNWMKSGIEYQSNGYQQLFSVVTNNGFSDWAMTNLDRVTQTMYYRLSRRGNDFLLEHSADGKIFNMMRMFHMFQAYTTVQFGFFASSPGDSSFAAHFSEIEWTECLWDAHTSSRFLEHHHHHH | not soluble
MGSDKIHHHHHHMDFIEVYPNAIPDELCDRLISTLEQHPGVVDGRTGNGVDIEKKLSRDLTLDSFADLIPLRNELLSHALKGTVEYFDKYSMALMGAVAVKVADNQGQPVTLNPDNYAELGHPRADALVKYLYRSGTINVQKYPKGKGGYPHWHSEQFPQAGHNEALHRVVLYMFYLNDVEEGGETEFFYQGRKLKPQKGTMVIAPAGFTHTHRGNVPVSGDKYIATSWVMFNRAEQLYVVG | not soluble
